Patent US20030113711A1, “Protein kinase peptide substrate determination using peptide libraries” (priority 2001, published 2003)

Tests used:
[1] = system: CC[C@H](C)[C@H](NC(=O)[C@H](CC(=O)O)NC(=O)[C@H](CCC(=O)O)NC(=O)[C@H](CCSC)NC(=O)CNC(=O)CNC(=O)CCCCCNC(=O)CCCC[C@@H]1SC[C@@H]2NC(=O)N[C@@H]21)C(=O)N[C@@H](Cc1ccc(O)cc1)C(=O)N[C@@H](Cc1ccccc1)C(=O)N[C@@H](CCC(=O)O)C(=O)N[C@@H](Cc1ccccc1)C(=O)N[C@@H](CCSC)C(=O)NCC(=O)NCC(=O)N[C@@H](CCCCN)C(=O)N[C@@H](CCCCN)C(=O)N[C@@H](CCCCN)C(N)=O; assay: Two-substrate kinetic comparison with known substrate, peptide and ATP varied simultaneously; format: biochemical; details: other: ErbB-2; peptide and ATP concentrations varied simultaneously, two-substrate fit
Procedure: (§1) In a separate experiment, the kinetic parameters of both peptide number 1 shown in Table 2, and a peptide with the sequence Biotin-Ahx-G-G-M-E-D-I-Y-F-E-F-M-G-G-K-K-K-amide (SEQ ID NO: 17), which has been previously identified as an ErbB-2 substrate (Jan et. al., (2000), Biochemistry 39: 9786-803), were determined and compared. In this experiment, both peptide and ATP concentrations were varied, and the resulting data was simultaneously fit to an equation representing a two-substrate enzyme reaction using SIGMAPLOT®. Data was collected using the kinases ErbB-2, ErbB-4, and EGFR. The results of this experiment are shown in Table 3 and indicate that for all three kinases tested, peptide number 1 shown in Table 2 is kinetically at least equivalent (based on kcat/Km values) to the known peptide substrate identified by Jan et al.

[2] = system: CC[C@H](C)[C@H](NC(=O)[C@H](CCC(=O)O)NC(=O)[C@H](CCC(=O)O)NC(=O)[C@H](Cc1c[nH]cn1)NC(=O)[C@H](C)NC(=O)[C@H](CCCNC(=N)N)NC(=O)CCCCCNC(=O)CCCC[C@@H]1SC[C@@H]2NC(=O)N[C@@H]21)C(=O)N[C@@H](Cc1ccc(O)cc1)C(=O)N[C@@H](Cc1c[nH]cn1)C(=O)N[C@@H](Cc1ccccc1)C(=O)N[C@@H](Cc1ccccc1)C(=O)N[C@@H](Cc1ccccc1)C(=O)N[C@@H](C)C(=O)N[C@@H](CCCCN)C(=O)N[C@@H](CCCCN)C(=O)N[C@@H](CCCCN)C(N)=O; assay: as above; format: biochemical; details: other: ErbB-2; peptide and ATP concentrations varied simultaneously, two-substrate fit
Procedure: as §1

Work on ErbB-2 (Homo sapiens) yielded a Km [1] of 157 µM, a kcat [1] of 0.0367 s⁻¹ and a kcat/Km [1] of 233 M⁻¹ s⁻¹. It also gave a Km [2] of 58 µM, a kcat [2] of 0.0233 s⁻¹ and a kcat/Km [2] of 417 M⁻¹ s⁻¹.
